Results: the nanobody polyreactivity screen of Harvey et al. (2022)

Test: yeast display, Sf9 membrane polyspecificity reagent, FACS + sequencing; frameworks hold sequencing errors
Procedure, shortened: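 Galactose-induced (36–48 hours) yeast carrying a synthetic nanobody display library were exposed to 10% biotinylated, detergent-solubilized Sf9 membrane reagent at 4 °C for 1 hour. FACS followed streptavidin microbead enrichment, using low and high (top ~1%) gates for expression (anti-HA) and reagent binding (streptavidin). Colony PCR, MiSeq 2 × 250 sequencing and CDR-length filtering followed. Labels for polyreactivity reflect the gate of origin.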

Row | Sequence | polyreactivity (PSR sort gate)
1 | QVQLVESRGGLVQAGGSLRLSSAASGFTFRYYLMGWYRQAPRKERELVAAITWSGGTTNYADSVKGRFTISRDNAKNSVYLQMNSLKPEDTAVYYCNAARSRGANRVPPYRLYYWGQGTQVTVSS | low polyreactivity
2 | QVQLVESRGGLVQAGGSLRLSSAASGITFGRNPMGWYRQAPGKERELVAAIESGGNTYADSVKGRFTISRDNAKNTVYLQMNSLKPEDTAVYYCAVDGGEFSSYGYWGQGTQVTVSS | low polyreactivity
3 | QVQLVESRGGLVQAGGSLRLTCAASGSTFAPNTMGWYRQAPGQERELVARITSSDGSTTYADSVKGRFTISRDNAKTTVYLQMNSLKPEHTAVYYCAADYGRRWGYDYWGQGTQVTVSS | low polyreactivity
4 | QVQLVESRGGLVQAGRSLRLSCAASGRTFHRNTLGRYRQAPGKERELVAAITGDGRTNYADSVKGRFTISRDNAKNTVYLLMNSLKPEDTAGYYCAAQYYYSEAGRDYWGQGTQVTVSS | low polyreactivity
5 | QVQLVESRGRLLQAGGSLRLSCAASGRISHINAMGCSIQAPGKERELVAGIRGRGGSTYYADSVKGRFTISRDNAKNSVYLQMNSLKPEDTEVYYCAARGWELIRTDPFDYWGQGSQVTVSS | high polyreactivity
6 | QVQLVESRGVLDQARGSLRLSCAATGSIFKPYAMGWYRQEPGKEMELVAAISGIGGSTYYADSVKGRFTIARDNAKNTVYLQMNSLKPEVTAVYYCAALTGFYNLRPYGYWGQGTQVTVSS | high polyreactivity
7 | QVQLVESRGVLVQAGGSIRLSCAASGFSIDYYAMGWYRPAPGKERELVAAITTSGGRTYYADSVKGRFTIARDYAKNTVYLQMNSLKPEDTAVYYCAVVTWIYGTRFNYWGQGTQVTVSS | high polyreactivity
8 | QVQLVESRVGLVKAGGSLRLSCAASGITLYWYAMGWYRQAPGKESELVAAISRRGGTTYYSDSVKGRFTISRDNAKNTVYLQMNILKPEDTAVYYCAKAPDTQTSWSRQEGNYWGQGSQVTVSS | low polyreactivity
9 | QVQLVESSGGLVQAGGSLRLSCAASGSIFLYNAMGWYRKAPGTEREMVAAISKSGGSTYYADSVKGRFTISRDNAKYTVYLQMNSLKPEDTAVYYCAAGYGRRIRYGCEYDYWGQGTQVTVSS | low polyreactivity
10 | QVQLVESVGALVQARGSLRLSCAASGFTFRPYAMGWYRQAPGKERELVAAITRSGGSTYYADSVKGRFTISRDTAKNTVYLQMNSLKPEDTAVYYCAARFARSEYDYWGQGTQVTVSS | high polyreactivity
11 | QVQLVESVGCLVQAGGSLRLSCAASGRTVVYGYAMGWYRQDPGKERELVAAITSGGSTNYADSVKGRFTISRDNAKNTVYLQMNSLNPEDSAVYYCNAGTVLISTYDYWGQGTQVTVSS | high polyreactivity
12 | QVQLVESVGGFVQAGGSLRLSCAASGRIFGTYAMGWYRQAPGKERELVAAITRGGTTYYADSVKRRFTISRDNAKNTVYLQMNSLKPEDTAVYDCATGPAIRYDYWGQGTQVTVSS | low polyreactivity
13 | QVQLVESVGGIVQAGGSLRLSCDASGRTFGRSAMGSYRQAPGKERELVAGISRAGDSTHYAESVKGRCTISRDNAKNTVYLQMNSLKPEDTAVYYCNKETPTIGARKYEYWGQGTQVTVSS | low polyreactivity
14 | QVQLVESVGGIVQAGGSLRLTCAASGSIIKRNAMGWYRQAPGKERELVATISSGDGSTRYADSVKGRFTISRDNAKNTVYLQMNSLKPEDTAVYYCARDFTYTYYRWKTPYRIGHDYWGQGTQVTVSS | low polyreactivity
15 | QVQLVESVGGLDQAGGSLRLSCAASGFILSWYAMGWYRQAPGKERELVAGISRRGGSTYYADSVTGRFTISRDNAKNTVYLQMNSLKPEDTAVYYCNALYDEWSVSTGDYWGQGTQVTVSS | high polyreactivity
16 | QVQLVESVGGLDQAGGSLRLSCAASVFTFNIYVMGWYRQAPGKERELVAAISTSTGSTYYADSVKGRFTISRDNAKNTVYLQMNSLKPQDTAVYYCNADDYDLRFDYWGQGTQVTVSS | low polyreactivity
17 | QVQLVESVGGLDQAGGTLRLSCAASALIFAYYAMGGYRQAPGKERELVAAITSSGTSTYYADSVKGRFTISRDNAKNTVYLQMNSLTPEDTAVYYCAASDRRLTGVGADEYWGQGTQVTVSS | high polyreactivity
18 | QVQLVESVGGLGQAGGSLRLSCAASGSIFVLNARGWSRQAPGKERELVAGITYSGGSTYYADSVKGRFTISRDNATNTVYLQMNSLKPEDTAVYSCAAPVRRYPYPGRFYYWGQGTQVTVSS | low polyreactivity
19 | QVQLVESVGGLGQARVRLRLSCAASGITFYRYAMGWYRQAPGKERELVAAITSRGTSTYYADSVKGRFTISRDNAKNTVYLQMNSLKPEDTAVYYCAAVLFVGDGGYDYWGQGTQVTVSS | high polyreactivity
20 | QVQLVESVGGLVLAGASLRLSCAASGSTYAPNAMGWYRQAPGKERELVAVITSGDSTYYAVSVKGRFTISRDNAKNTVYLQMNSLKPEDTAVYYCASETYGTPGYYYWGQGTQVTVSS | low polyreactivity
21 | QVQLVESVGGLVQAGCILRLSCAPSGRIFGVNAMGWYRQAPGKVRELVAAIDWSDGSTYYADSVKGRFTISRDNAKNTVYLQMNSLKPEDTAVYYCAALPSYLAAQYGDDYWGQGTQVTVSS | low polyreactivity
22 | QVQLVESVGGLVQAGCSLRLSCGASGRIFPWYAMGWYRPAPGKERELVAAIRWRGGGTYYADSVKGRFTISRDNAKNTVYLQMNSLKPEDTAVYYCSARRPAKGMGYWGQGTQVTVSS | high polyreactivity

Row | Sequence | polyreactivity (PSR sort gate)
23 | QVQLVESVGGLVQAGGCLRLSCDASGFIFTYVMGWYRQAAGKERELVAVITNGGSTYYADSVKGRFTISRDNAKNSFYLQMNSLKPEDTAVYYCAARDRFRYDAYYYWGLGTQVTVSS | high polyreactivity
24 | QVQLVESVGGLVQAGGILRLSSAASGRIFYFYAMGWYRQAPGKERELVAGINWNGGSTHYADSVKGRFTISRDNAKNTVYLQMNSLKPEDTAVYYCAADGYYGQYGGHMGYWGQGTQVTVSS | high polyreactivity
25 | QVQLVESVGGLVQAGGILRLSSAASGSTFERYAMGWDRQAPGKEREFVATINWGGGSTYYADSVKGRFTISRDNAKKTVYLQMNSLKPEDTAVDYCNAYVLYQSWRFSYDYWGQGTHVTVSS | low polyreactivity
26 | QVQLVESVGGLVQAGGRLRLSSAASGFTFAFHAMGSYRQAPGKERELVAAISCSGVSTYYADSVKWRFTLSRDNEKNTDYLQMNSLKPEDTAVKYCAVGAVASSHRAGGKRHEYWGQGTQVTLSS | low polyreactivity
27 | QVQLVESVGGLVQAGGSHRLSCAASGRTFQSNGMGWYRHAPGKERELDAAITWSSGTTYYADSVKGRFTISRDNAKNTVYLQMNSLKPEDTAVYYCAADCGHRNCLYYSGFGYWGQGTQVTVSS | low polyreactivity
28 | QVQLVESVGGLVQAGGSHRLSCAASGSIFGYYTMGWYRQAPGKERELVAAITYSGGSTYYADSVKGRFTISRDNAKNTVYLQMNSLKPEDTAVYYCNAKSAAHRYVRRHDYWGLGTQVTVSS | low polyreactivity
29 | QVQLVESVGGLVQAGGSHRLSCAASGSTFYRYAMGWYRQAPGKERELVAAISRSGGTTYYADSVKGRFTISRDNAKNTVYLQMNSLKPDDTAVYYCNARGRYEYGYWGQGTEVTVSS | high polyreactivity
30 | QVQLVESVGGLVQAGGSLRISCAASGRITQIYAMGWSRQAPRKEWELVARITSTDSTYYADSVKGRFTISRDNAKKTVYLKMNSLTPEDTAVYYCAASWWSPYDYWGQGTQVTVSS | low polyreactivity
31 | QVQLVESVGGLVQAGGSLRISCAASGSTFPWYAMGWYRQAPGKERELVASITSGTTTNYADSVKGRFTISRDNAKNTVYLQRNSLKPEDTADYYCAASWVYQYDYWGQGTQVSVSS | low polyreactivity
32 | QVQLVESVGGLVQAGGSLRISCAASGSTLTRNTMGWYRPAPGKEREFVATITRSGGSTYYADSVKGRFTISRDNAKNTVYLQMNSLKPEDTAVYYCAVRRQTFRYVYPGMDYWGQGTQVTVSS | high polyreactivity
33 | QVQLVESVGGLVQAGGSLRLICAASGFIFWDYAMGSDRQAPGKERELVAAISDSGGDTYYAESVKGRFTISRDNAKNTVYLQMNSLKPEDTAVYFCAADLGRNYDYWGQGTQVTVLS | low polyreactivity
34 | QVQLVESVGGLVQAGGSLRLICAASGLTFEWYTMGWYRQATGNERELVAVITVSGSSTYYADSVKGRFTISRDNAKNTVYLQMNSLKPEDTAVYYCARKTYYTGDFLGREYGYWGQGTQVTVSS | low polyreactivity
35 | QVQLVESVGGLVQAGGSLRLICAASGSIFYPNAMGWYRQAPGKERELVAAISYSGTSTNYADSVKGRFTISRDNAKNTVYLQMNSLKPEDTAVYYCAARGFPHRRHSLYDYWGQGTQVTVSS | low polyreactivity
36 | QVQLVESVGGLVQAGGSLRLICAASGSTFRVNAIGWYRQAPGKEREFVAAITGNAGSTYYADSVKGRFTISRDNAKNTVYLQMNSLKPEDTAVYYCAAGLPGYDGDYWGQGTQVTVSS | low polyreactivity
37 | QVQLVESVGGLVQAGGSLRLSCAASGFIFSGNTMGWYRQAPGKERELVAAITSGGGRTYYADSVKGRFTISRDNAKNTVYLQMNSLKPEDTAVYYCNTAFVYEYDYWGQGTQVTVSS | high polyreactivity
38 | QVQLVESVGGLVQAGGSLRLSCAASGFIFWPYAMGWSRQAPGKERELVAGITSDGSTHYADSVKGRFTISRDNAKNTVYLQINSLKPQDTAVYYCAKGIRYGYRVRVYYWGQGTQVTVSS | high polyreactivity
39 | QVQLVESVGGLVQAGGSLRLSCAASGFIFYGYAMGWYRQAPGKERELVAAISRSGTSTYYADSVKGRFTISRDYAKNTVYLQMNSVKPDDTAVYYCDADYVGWKWGSRGAIYKHYYWGQGTQVTVSS | high polyreactivity
40 | QVQLVESVGGLVQAGGSLRLSCAASGFIIRYYAMGWYRQAPGKERELVAVISSNGARTSYADSVKGRFTISRDNAKNTVYLQMNSLKPEDTAVYYCNARAWSRFPPVGHDYWGQGTQVTVSS | high polyreactivity
41 | QVQLVESVGGLVQAGGSLRLSCAASGFIIYGYGMGWYRQAPGKERELVAAISARSTRTYYADSVKGRFTISRDNAKNTVYLQMNSLKPEDTAVYYCAAVRGPTYRNDNYGYWGQGTQVTVSS | high polyreactivity
42 | QVQLVESVGGLVQAGGSLRLSCAASGFTFHDYAMGWYRQAPGKERELVAAIYFSGGRTYYADSVKGRFTISRDNAKNTVYLQMNSLKPEDNAVYYCNVPYYSFRELSSYYWGQGTQVTVSS | high polyreactivity
43 | QVQLVESVGGLVQAGGSLRLSCAASGFTFRRYAMGWYRQAPGKERELVAAISYSGGITYYADSVKGRFTISRDNAKNTVYLQMNSLKPEDTAVYYCAADYFAPYKTYEYWGQGTQVTVSS | high polyreactivity
